Experimental data reported in patent US20220119489A1, “COMPOSITIONS AND METHODS FOR TREATING MUSCULAR DYSTROPHY AND RELATED DISORDERS” (CHILDREN'S MEDICAL CENTER CORPORATION, priority 2019, published 2022).

Each substance was assayed against CD82 (mouse) (mouse) (UniProt P40237) (assay: IP with anti CD82 antibodies, mouse muscle tissue, mass spectrometry).

Chain of Annexin A2 (human) (P07355 2-339 limits assumed): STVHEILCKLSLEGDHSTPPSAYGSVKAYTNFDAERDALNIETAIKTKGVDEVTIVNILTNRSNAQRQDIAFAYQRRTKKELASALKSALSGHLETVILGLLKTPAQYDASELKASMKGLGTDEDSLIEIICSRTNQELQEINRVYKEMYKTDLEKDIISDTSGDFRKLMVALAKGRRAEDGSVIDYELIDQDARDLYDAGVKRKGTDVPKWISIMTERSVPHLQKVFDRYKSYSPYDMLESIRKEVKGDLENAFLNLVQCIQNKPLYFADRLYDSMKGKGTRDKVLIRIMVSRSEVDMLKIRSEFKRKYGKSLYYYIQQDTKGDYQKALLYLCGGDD

Substance	Total	Unique
G3P_MOUSE (from UniProt P16858) (enzyme)	2	2
KV2A7_MOUSE	2	2
TBA1A_MOUSE (from UniProt P68369)	3	3

These substances were tested against T1, CD82 polypeptide (human) (human) (assay: IP with anti CD82 antibodies, human myotubes, mass spectrometry).
T1 sequence (P27701 whole entry, looked up): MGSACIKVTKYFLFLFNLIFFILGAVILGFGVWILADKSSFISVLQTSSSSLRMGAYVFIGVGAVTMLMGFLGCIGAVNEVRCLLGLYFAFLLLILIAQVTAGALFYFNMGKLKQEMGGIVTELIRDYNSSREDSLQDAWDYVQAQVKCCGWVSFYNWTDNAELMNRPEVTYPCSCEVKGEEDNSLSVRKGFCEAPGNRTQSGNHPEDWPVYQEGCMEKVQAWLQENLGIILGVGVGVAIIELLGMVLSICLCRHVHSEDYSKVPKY

Substance	Total	Unique
Annexin A2 (human) (from UniProt P07355)	5	5
Dysferlin (from UniProt O75923)	32	31
Filamin A (from UniProt P21333)	30	30
Filamin B (from UniProt O75369)	3	3
Filamin C (from UniProt Q14315)	24	24
Myoferlin (from UniProt Q9NZM1)	32	31
nonmuscle myosin IIA (from UniProt P35579)	77	64
profilin (from UniProt P07737)	3	3
